According to patent EP1638605B1 (Raptor Pharmaceutical, Inc., dated 2014):

T1: recombinant human alpha-L-iduronidase (Aldurazyme) (human, UniProt P35475 27-653, limits assumed)
T1 construct: also called rhIDU; Recombinant human IDU
T1 sequence (looked up): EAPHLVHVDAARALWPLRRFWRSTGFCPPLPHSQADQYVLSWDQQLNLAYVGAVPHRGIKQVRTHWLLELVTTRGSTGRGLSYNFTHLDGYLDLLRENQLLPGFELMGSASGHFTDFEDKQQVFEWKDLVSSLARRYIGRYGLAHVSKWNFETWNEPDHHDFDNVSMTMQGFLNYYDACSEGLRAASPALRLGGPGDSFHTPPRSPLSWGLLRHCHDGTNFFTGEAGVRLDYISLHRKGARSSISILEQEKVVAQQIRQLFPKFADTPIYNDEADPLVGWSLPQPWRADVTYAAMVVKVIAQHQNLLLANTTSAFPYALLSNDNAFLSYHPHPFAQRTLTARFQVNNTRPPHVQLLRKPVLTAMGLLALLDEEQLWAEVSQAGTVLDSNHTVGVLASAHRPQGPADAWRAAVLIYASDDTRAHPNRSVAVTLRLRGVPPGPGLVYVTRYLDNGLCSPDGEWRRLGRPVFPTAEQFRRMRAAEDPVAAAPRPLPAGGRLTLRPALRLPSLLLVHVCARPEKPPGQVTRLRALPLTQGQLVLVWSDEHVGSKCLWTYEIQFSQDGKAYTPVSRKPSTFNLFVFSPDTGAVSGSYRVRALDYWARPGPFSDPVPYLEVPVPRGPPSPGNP

B1: sLRP2, the entire second ligand-binding domain of human LRP1 (recombinant) (receptor, UniProt Q07954 806-1183, looked up)
chain: KCRVNNGGCSSLCLATPGSRQCACAEDQVLDADGVTCLANPSYVPPPQCQPGEFACANSRCIQERWKCDGDNDCLDNSDEAPALCHQHTCPSDRFKCENNRCIPNRWLCDGDNDCGNSEDESNATCSARTCPPNQFSCASGRCIPISWTCDLDDDCGDRSDESASCAYPTCFPLTQFTCNNGRCININWRCDNDNDCGDNSDEAGCSHSCSSTQFKCNSGRCIPEHWTCDGDNDCGDYSDETHANCTNQATRPPGGCHTDEFQCRLDGLCIPLRWRCDGDTDCMDSSDEKSCEGVTHVCDPSVKFGCKDSARCISKAWVCDGDNDCEDNSDEENCESLACRPPSHPCANNTSVCLPPDKLCDGNDDCGDGSDEGELCD
notes: also called immobilized LRP

Experiments:
[1] = target: mLRP/LRPTmMegT mini-receptor (fourth ligand binding and transmembrane domains of LRP1 with the C-terminal cytoplasmic tail of megalin) on MDCK cells (UniProt Q07954); test: cell-based or functional assay
[2] = target: T1, recombinant human alpha-L-iduronidase …; test: ligand blot, sLRP2 (1 µg/well) on membrane, antibody detection

mLRP/LRPTmMegT mini-receptor (fourth ligand binding and transmembrane domains of LRP1 with the C-terminal cytoplasmic tail of megalin) on MDCK cells, sequence (Q07954 3293-4444): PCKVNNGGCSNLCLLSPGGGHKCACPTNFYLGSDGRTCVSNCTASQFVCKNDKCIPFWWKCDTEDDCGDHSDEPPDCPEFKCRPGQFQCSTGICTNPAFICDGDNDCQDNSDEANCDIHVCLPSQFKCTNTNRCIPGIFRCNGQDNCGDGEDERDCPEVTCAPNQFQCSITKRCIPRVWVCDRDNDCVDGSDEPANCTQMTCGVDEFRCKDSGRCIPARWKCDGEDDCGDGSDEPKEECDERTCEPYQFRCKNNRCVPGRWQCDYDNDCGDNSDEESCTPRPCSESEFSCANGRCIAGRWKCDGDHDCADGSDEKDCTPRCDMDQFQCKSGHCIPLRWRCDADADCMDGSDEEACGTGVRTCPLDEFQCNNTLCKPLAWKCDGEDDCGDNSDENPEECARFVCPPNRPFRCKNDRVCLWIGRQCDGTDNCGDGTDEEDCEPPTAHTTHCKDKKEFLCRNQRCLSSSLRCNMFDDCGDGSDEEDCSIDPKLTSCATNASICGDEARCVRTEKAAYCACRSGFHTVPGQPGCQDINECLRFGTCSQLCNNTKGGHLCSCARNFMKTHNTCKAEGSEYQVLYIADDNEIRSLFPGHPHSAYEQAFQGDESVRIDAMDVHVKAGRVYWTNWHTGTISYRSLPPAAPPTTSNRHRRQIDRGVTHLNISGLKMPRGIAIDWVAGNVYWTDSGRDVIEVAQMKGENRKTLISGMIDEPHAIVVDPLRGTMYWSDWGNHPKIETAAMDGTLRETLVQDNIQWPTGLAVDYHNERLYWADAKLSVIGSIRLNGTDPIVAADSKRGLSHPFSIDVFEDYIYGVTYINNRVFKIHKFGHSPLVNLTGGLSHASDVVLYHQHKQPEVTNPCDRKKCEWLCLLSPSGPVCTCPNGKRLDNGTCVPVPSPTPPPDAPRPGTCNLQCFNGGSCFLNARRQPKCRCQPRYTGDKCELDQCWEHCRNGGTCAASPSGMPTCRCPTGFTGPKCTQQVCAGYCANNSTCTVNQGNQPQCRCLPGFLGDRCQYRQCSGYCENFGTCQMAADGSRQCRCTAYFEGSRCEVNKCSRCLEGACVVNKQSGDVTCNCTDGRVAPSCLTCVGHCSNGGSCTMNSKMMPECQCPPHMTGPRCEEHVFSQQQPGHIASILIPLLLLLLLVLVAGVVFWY

| Molecule | apical-to-basolateral permeability coefficient of 125I-RAP across MEGt-transfected MDCK monolayers with excess unlabeled RAP at 2 µg/ml [1] [×10⁻⁶ cm/s] | apical-to-basolateral permeability coefficient of 125I-RAP across MEGt-transfected MDCK monolayers, 60 min [1] [×10⁻⁶ cm/s] | ratio of apical-to-basolateral to basolateral-to-apical permeability coefficient of 125I-RAP in MEGt-transfected MDCK cells [1] [fold] | binding result [2] |
| --- | --- | --- | --- | --- |
| receptor-associated protein (RAP) (ligand) | 6.3 | 18.1 | 460 |  |
| B1 |  |  |  | no binding |
